The results in this text go back to patent US20210230570A1 (published 2021).

For the assay, the target named is T1, Factor VIIIa (recombinant FVIII, Kogenate FS, Bayer healthcare, activated with alpha-thrombin) (UniProt P00451 20-2351, limits assumed).
T1 construct: also called FVIIIa; cofactor
T1 sequence (looked up): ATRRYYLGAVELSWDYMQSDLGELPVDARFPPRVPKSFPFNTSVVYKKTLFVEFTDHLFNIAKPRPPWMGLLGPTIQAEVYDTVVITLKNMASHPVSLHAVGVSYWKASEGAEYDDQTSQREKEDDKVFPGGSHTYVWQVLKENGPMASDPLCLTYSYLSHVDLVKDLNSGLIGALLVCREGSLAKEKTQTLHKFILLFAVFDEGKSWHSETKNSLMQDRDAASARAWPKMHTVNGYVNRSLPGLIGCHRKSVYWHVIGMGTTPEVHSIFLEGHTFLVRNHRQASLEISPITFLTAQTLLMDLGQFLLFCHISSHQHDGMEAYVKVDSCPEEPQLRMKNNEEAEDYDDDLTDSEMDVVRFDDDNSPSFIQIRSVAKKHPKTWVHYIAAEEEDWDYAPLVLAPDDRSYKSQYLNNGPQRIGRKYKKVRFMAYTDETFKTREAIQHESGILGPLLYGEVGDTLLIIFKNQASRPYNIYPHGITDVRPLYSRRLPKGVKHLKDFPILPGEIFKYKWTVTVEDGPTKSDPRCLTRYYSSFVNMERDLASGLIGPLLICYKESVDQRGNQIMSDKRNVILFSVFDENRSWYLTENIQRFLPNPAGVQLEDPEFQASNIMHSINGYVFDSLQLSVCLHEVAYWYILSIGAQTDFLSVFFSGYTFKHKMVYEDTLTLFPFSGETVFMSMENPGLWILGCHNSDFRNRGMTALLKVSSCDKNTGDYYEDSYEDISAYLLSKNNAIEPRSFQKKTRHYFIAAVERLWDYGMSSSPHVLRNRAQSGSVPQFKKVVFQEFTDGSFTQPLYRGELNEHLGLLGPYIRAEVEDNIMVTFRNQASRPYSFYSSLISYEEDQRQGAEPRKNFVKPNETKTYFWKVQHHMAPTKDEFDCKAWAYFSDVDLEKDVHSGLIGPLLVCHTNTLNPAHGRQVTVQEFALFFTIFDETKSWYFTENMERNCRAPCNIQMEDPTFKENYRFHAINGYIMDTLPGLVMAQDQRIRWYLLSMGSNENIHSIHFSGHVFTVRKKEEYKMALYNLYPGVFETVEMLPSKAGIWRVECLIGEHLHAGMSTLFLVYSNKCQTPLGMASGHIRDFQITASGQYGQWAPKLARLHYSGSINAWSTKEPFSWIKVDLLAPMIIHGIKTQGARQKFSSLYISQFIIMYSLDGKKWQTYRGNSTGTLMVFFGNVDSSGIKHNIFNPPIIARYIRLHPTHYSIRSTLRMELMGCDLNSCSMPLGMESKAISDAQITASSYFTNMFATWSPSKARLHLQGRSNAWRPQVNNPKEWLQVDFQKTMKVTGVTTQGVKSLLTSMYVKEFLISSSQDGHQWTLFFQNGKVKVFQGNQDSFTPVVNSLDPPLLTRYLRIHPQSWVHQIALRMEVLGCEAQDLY
As to the kind of experiment: same assay; KD-app of Catalyst Biosciences WT FIXa divided by KD-app of the variant. The method, then: The molar concentration of FVIII was then determined by absorbance at 280 nm using an extinction coefficient of 1.567 mg⁻¹ mL cm⁻¹ and a molecular weight of 163.6 kDa.

B1: FIXa-R318Y/R338E/E410S (enzyme)
chain 1: YNSGKLEEFVQGNLERECMEEKCSFEEAREVFENTERTTEFWKQYVDGDQCESNPCLNGGSCKDDINSYECWCPFGFEGKNCELDVTCNIKNGRCEQFCKNSADNKVVCSCTEGYRLAENQKSCEPAVPFPCGRVSVSQTSKLTR
chain 2: VVGGEDAKPGQFPWQVVLNGKVDAFCGGSIVNEKWIVTAAHCVETGVKITVVAGEHNIEETEHTEQKRNVIRIIPHHNYNAAINKYNHDIALLELDEPLVLNSYVTPICIADKEYTNIFLKFGSGYVSGWGRVFHKGYSALVLQYLRVPLVDRATCLESTKFTIYNNMFCAGFHEGGRDSCQGDSGGPHVTEVEGTSFLTGIISWGEECAMKGKYGIYTKVSRYVNWIKSKTKLT
notes: also called R150Y/R170E/E240S (chymotrypsin numbering)
As for B1, the KD-WT/KD-mut came to 14.1 ratio.

B2: FIXa-R318Y/R338E/R403E/E410N/T412V (enzyme)
chain 1: YNSGKLEEFVQGNLERECMEEKCSFEEAREVFENTERTTEFWKQYVDGDQCESNPCLNGGSCKDDINSYECWCPFGFEGKNCELDVTCNIKNGRCEQFCKNSADNKVVCSCTEGYRLAENQKSCEPAVPFPCGRVSVSQTSKLTR
chain 2: VVGGEDAKPGQFPWQVVLNGKVDAFCGGSIVNEKWIVTAAHCVETGVKITVVAGEHNIEETEHTEQKRNVIRIIPHHNYNAAINKYNHDIALLELDEPLVLNSYVTPICIADKEYTNIFLKFGSGYVSGWGRVFHKGYSALVLQYLRVPLVDRATCLESTKFTIYNNMFCAGFHEGGRDSCQGDSGGPHVTEVEGTSFLTGIISWGEECAMKGKYGIYTKVSEYVNWIKNKVKLT
notes: also called R150Y/R170E/R233E/E240N/T242V (chymotrypsin numbering)
Regarding B2, the KD-WT/KD-mut came to 1.7 ratio.

B3: FIXa-Y155F/K247N/N249S/N260S (enzyme)
chain 1: YNSGKLEEFVQGNLERECMEEKCSFEEAREVFENTERTTEFWKQYVDGDQCESNPCLNGGSCKDDINSYECWCPFGFEGKNCELDVTCNIKNGRCEQFCKNSADNKVVCSCTEGYRLAENQKSCEPAVPFPCGRVSVSQTSKLTR
chain 2: VVGGEDAKPGQFPWQVVLNGKVDAFCGGSIVNEKWIVTAAHCVETGVKITVVAGEHNIEETEHTEQNRSVIRIIPHHNYSAAINKYNHDIALLELDEPLVLNSYVTPICIADKEYTNIFLKFGSGYVSGWGRVFHKGRSALVLQYLRVPLVDRATCLRSTKFTIYNNMFCAGFHEGGRDSCQGDSGGPHVTEVEGTSFLTGIISWGEECAMKGKYGIYTKVSRYVNWIKEKTKLT
As to B3, the KD-WT/KD-mut was 0.6 ratio.

B4: FIXa-Y155F/K228N/R318Y/R338E/R403E/E410N (enzyme)
chain 1: YNSGKLEEFVQGNLERECMEEKCSFEEAREVFENTERTTEFWKQYVDGDQCESNPCLNGGSCKDDINSYECWCPFGFEGKNCELDVTCNIKNGRCEQFCKNSADNKVVCSCTEGYRLAENQKSCEPAVPFPCGRVSVSQTSKLTR
chain 2: VVGGEDAKPGQFPWQVVLNGKVDAFCGGSIVNEKWIVTAAHCVETGVNITVVAGEHNIEETEHTEQKRNVIRIIPHHNYNAAINKYNHDIALLELDEPLVLNSYVTPICIADKEYTNIFLKFGSGYVSGWGRVFHKGYSALVLQYLRVPLVDRATCLESTKFTIYNNMFCAGFHEGGRDSCQGDSGGPHVTEVEGTSFLTGIISWGEECAMKGKYGIYTKVSEYVNWIKNKTKLT
B4: the KD-WT/KD-mut turned out to be 3.1 ratio.

B5: FIXa-R318Y/R338E/R403E/E410S (enzyme)
chain 1: YNSGKLEEFVQGNLERECMEEKCSFEEAREVFENTERTTEFWKQYVDGDQCESNPCLNGGSCKDDINSYECWCPFGFEGKNCELDVTCNIKNGRCEQFCKNSADNKVVCSCTEGYRLAENQKSCEPAVPFPCGRVSVSQTSKLTR
chain 2: VVGGEDAKPGQFPWQVVLNGKVDAFCGGSIVNEKWIVTAAHCVETGVKITVVAGEHNIEETEHTEQKRNVIRIIPHHNYNAAINKYNHDIALLELDEPLVLNSYVTPICIADKEYTNIFLKFGSGYVSGWGRVFHKGYSALVLQYLRVPLVDRATCLESTKFTIYNNMFCAGFHEGGRDSCQGDSGGPHVTEVEGTSFLTGIISWGEECAMKGKYGIYTKVSEYVNWIKSKTKLT
notes: also called R150Y/R170E/R233E/E240S (chymotrypsin numbering)
Consider B5, for which the KD-WT/KD-mut is 1.8 ratio.

B6: FIXa-R318Y/R338E/T343R/N346Y/R403E/E410N (enzyme)
chain 1: YNSGKLEEFVQGNLERECMEEKCSFEEAREVFENTERTTEFWKQYVDGDQCESNPCLNGGSCKDDINSYECWCPFGFEGKNCELDVTCNIKNGRCEQFCKNSADNKVVCSCTEGYRLAENQKSCEPAVPFPCGRVSVSQTSKLTR
chain 2: VVGGEDAKPGQFPWQVVLNGKVDAFCGGSIVNEKWIVTAAHCVETGVKITVVAGEHNIEETEHTEQKRNVIRIIPHHNYNAAINKYNHDIALLELDEPLVLNSYVTPICIADKEYTNIFLKFGSGYVSGWGRVFHKGYSALVLQYLRVPLVDRATCLESTKFRIYYNMFCAGFHEGGRDSCQGDSGGPHVTEVEGTSFLTGIISWGEECAMKGKYGIYTKVSEYVNWIKNKTKLT
notes: also called R150Y/R170E/T175R/N178Y/R233E/E240N (chymotrypsin numbering)
For the molecule B6, the KD-WT/KD-mut amounted to 6.1 ratio.

B7: FIXa-R318Y/R338E/N346D/R403E/E410N (enzyme)
chain 1: YNSGKLEEFVQGNLERECMEEKCSFEEAREVFENTERTTEFWKQYVDGDQCESNPCLNGGSCKDDINSYECWCPFGFEGKNCELDVTCNIKNGRCEQFCKNSADNKVVCSCTEGYRLAENQKSCEPAVPFPCGRVSVSQTSKLTR
chain 2: VVGGEDAKPGQFPWQVVLNGKVDAFCGGSIVNEKWIVTAAHCVETGVKITVVAGEHNIEETEHTEQKRNVIRIIPHHNYNAAINKYNHDIALLELDEPLVLNSYVTPICIADKEYTNIFLKFGSGYVSGWGRVFHKGYSALVLQYLRVPLVDRATCLESTKFTIYDNMFCAGFHEGGRDSCQGDSGGPHVTEVEGTSFLTGIISWGEECAMKGKYGIYTKVSEYVNWIKNKTKLT
notes: also called R150Y/R170E/N178D/R233E/E240N (chymotrypsin numbering)
For the molecule B7, the KD-WT/KD-mut came to 0.9 ratio.

B8: FIXa-R318Y/R338E/N346Y/R403E/E410N (enzyme)
chain 1: YNSGKLEEFVQGNLERECMEEKCSFEEAREVFENTERTTEFWKQYVDGDQCESNPCLNGGSCKDDINSYECWCPFGFEGKNCELDVTCNIKNGRCEQFCKNSADNKVVCSCTEGYRLAENQKSCEPAVPFPCGRVSVSQTSKLTR
chain 2: VVGGEDAKPGQFPWQVVLNGKVDAFCGGSIVNEKWIVTAAHCVETGVKITVVAGEHNIEETEHTEQKRNVIRIIPHHNYNAAINKYNHDIALLELDEPLVLNSYVTPICIADKEYTNIFLKFGSGYVSGWGRVFHKGYSALVLQYLRVPLVDRATCLESTKFTIYYNMFCAGFHEGGRDSCQGDSGGPHVTEVEGTSFLTGIISWGEECAMKGKYGIYTKVSEYVNWIKNKTKLT
notes: also called R150Y/R170E/N178Y/R233E/E240N (chymotrypsin numbering)
Turning to B8, the KD-WT/KD-mut amounted to 2.4 ratio.

B9: FIXa-R318Y/R338E/T343R/N346D/R403E/E410N (enzyme)
chain 1: YNSGKLEEFVQGNLERECMEEKCSFEEAREVFENTERTTEFWKQYVDGDQCESNPCLNGGSCKDDINSYECWCPFGFEGKNCELDVTCNIKNGRCEQFCKNSADNKVVCSCTEGYRLAENQKSCEPAVPFPCGRVSVSQTSKLTR
chain 2: VVGGEDAKPGQFPWQVVLNGKVDAFCGGSIVNEKWIVTAAHCVETGVKITVVAGEHNIEETEHTEQKRNVIRIIPHHNYNAAINKYNHDIALLELDEPLVLNSYVTPICIADKEYTNIFLKFGSGYVSGWGRVFHKGYSALVLQYLRVPLVDRATCLESTKFRIYDNMFCAGFHEGGRDSCQGDSGGPHVTEVEGTSFLTGIISWGEECAMKGKYGIYTKVSEYVNWIKNKTKLT
notes: also called R150Y/R170E/T175R/N178D/R233E/E240N (chymotrypsin numbering)
Consider B9, for which the KD-WT/KD-mut is 1.3 ratio.

B10: FIXa-R318Y/R338E/T343R/R403E/E410N (enzyme)
chain 1: YNSGKLEEFVQGNLERECMEEKCSFEEAREVFENTERTTEFWKQYVDGDQCESNPCLNGGSCKDDINSYECWCPFGFEGKNCELDVTCNIKNGRCEQFCKNSADNKVVCSCTEGYRLAENQKSCEPAVPFPCGRVSVSQTSKLTR
chain 2: VVGGEDAKPGQFPWQVVLNGKVDAFCGGSIVNEKWIVTAAHCVETGVKITVVAGEHNIEETEHTEQKRNVIRIIPHHNYNAAINKYNHDIALLELDEPLVLNSYVTPICIADKEYTNIFLKFGSGYVSGWGRVFHKGYSALVLQYLRVPLVDRATCLESTKFRIYNNMFCAGFHEGGRDSCQGDSGGPHVTEVEGTSFLTGIISWGEECAMKGKYGIYTKVSEYVNWIKNKTKLT
notes: also called R150Y/R170E/T175R/R233E/E240N (chymotrypsin numbering)
With B10, the KD-WT/KD-mut amounted to 6.6 ratio.

B11: FIXa-Y155F/K247N/N249S/R318Y/R338E/E410N (enzyme)
chain 1: YNSGKLEEFVQGNLERECMEEKCSFEEAREVFENTERTTEFWKQYVDGDQCESNPCLNGGSCKDDINSYECWCPFGFEGKNCELDVTCNIKNGRCEQFCKNSADNKVVCSCTEGYRLAENQKSCEPAVPFPCGRVSVSQTSKLTR
chain 2: VVGGEDAKPGQFPWQVVLNGKVDAFCGGSIVNEKWIVTAAHCVETGVKITVVAGEHNIEETEHTEQNRSVIRIIPHHNYNAAINKYNHDIALLELDEPLVLNSYVTPICIADKEYTNIFLKFGSGYVSGWGRVFHKGYSALVLQYLRVPLVDRATCLESTKFTIYNNMFCAGFHEGGRDSCQGDSGGPHVTEVEGTSFLTGIISWGEECAMKGKYGIYTKVSRYVNWIKNKTKLT
With B11, the KD-WT/KD-mut amounted to 12.8 ratio.
